Results reported in patent publication US20170304566A1 (Ablynx, published 2017).

Molecular target: F protein (fusion glycoprotein) of hRSV, Memphis 37 strain (human respiratory syncytial virus, …)
Experiment: cell-based or functional assay

B1: SEQ ID NO: 71 (RSV434), trivalent polypeptide consisting of three anti-hRSV immunoglobulin single variable domains (VHH)
chain: DVQLVESGGGLVQAGGSLSISCAASGGSLSNYVLGWFRQAPGKEREFVAAINWRGDITIGPPNVEGRFTISRDNAKNTGYLQMNSLAPDDTAVYYCGAGTPLNPGAYIYDWSYDYWGRGTQVTVSSGGGGSGGGGSGGGGSEVQLVESGGGLVQAGGSLSISCAASGGSLSNYVLGWFRQAPGKEREFVAAINWRGDITIGPPNVEGRFTISRDNAKNTGYLQMNSLAPDDTAVYYCGAGTPLNPGAYIYDWSYDYWGRGTQVTVSSGGGGSGGGGSGGGGSEVQLVESGGGLVQAGGSLSISCAASGGSLSNYVLGWFRQAPGKEREFVAAINWRGDITIGPPNVEGRFTISRDNAKNTGYLQMNSLAPDDTAVYYCGAGTPLNPGAYIYDWSYDYWGRGTQVTVSS
- sensitivity in in vitro neutralization relative to RSV-B 18537: ~6 fold
